The assay addresses T1, GR (Homo sapiens, UniProt P04150).
T1 sequence (P04150 1-777): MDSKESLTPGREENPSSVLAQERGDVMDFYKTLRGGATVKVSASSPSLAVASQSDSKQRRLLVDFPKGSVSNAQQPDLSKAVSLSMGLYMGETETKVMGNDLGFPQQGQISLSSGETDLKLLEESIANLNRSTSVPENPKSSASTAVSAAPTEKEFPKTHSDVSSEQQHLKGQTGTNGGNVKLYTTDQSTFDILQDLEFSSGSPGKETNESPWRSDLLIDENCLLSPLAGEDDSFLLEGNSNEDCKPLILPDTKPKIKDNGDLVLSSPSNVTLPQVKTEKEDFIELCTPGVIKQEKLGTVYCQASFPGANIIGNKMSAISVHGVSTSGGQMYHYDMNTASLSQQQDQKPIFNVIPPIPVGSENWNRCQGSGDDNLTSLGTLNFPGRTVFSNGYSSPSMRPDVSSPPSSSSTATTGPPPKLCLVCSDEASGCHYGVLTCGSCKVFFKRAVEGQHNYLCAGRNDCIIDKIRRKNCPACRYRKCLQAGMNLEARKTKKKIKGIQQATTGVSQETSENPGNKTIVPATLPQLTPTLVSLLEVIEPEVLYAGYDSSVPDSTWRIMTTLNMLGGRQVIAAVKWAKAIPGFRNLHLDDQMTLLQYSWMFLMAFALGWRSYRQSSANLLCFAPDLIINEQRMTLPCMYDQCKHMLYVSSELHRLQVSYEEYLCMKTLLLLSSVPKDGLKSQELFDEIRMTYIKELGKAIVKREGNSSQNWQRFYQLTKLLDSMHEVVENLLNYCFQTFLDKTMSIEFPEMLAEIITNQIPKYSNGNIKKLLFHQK
As to the kind of experiment: GR transcription activity, MMTV-CAT reporter (Example 1). The conditions noted are these: DU145 cells. Set-up: expressed in transfected cells; host or cells: DU145. The assay is classed as cell-based. The protocol:
366. Human prostate cancer DU145 or PC3 cells, or human lung carcinoma cells NCI H1299 were grown in Dulbecco's minimal essential medium (DMEM) containing penicillin (25 U/ml), streptomycin (25˜g/ml), and 5% fetal calf serum (FCS). One hour before transfection, the medium was changed to DMEM with 5% charcoal-stripped FCS. Phenol red-free and serum-free media were used on the experiments employing E2 or TGF-β, respectively. A β-galactosidase expression plasmid, pCMV-β-gal, was used as an internal control for transfection efficiency.
367. Cells were transfected using the calcium phosphate technique (Yeh, et al. Molec. Endocrinol. 8:77-88, 1994). The medium was changed 24 hr posttransfection and the cells treated with either steroid hormones or hydroxyflutamide, and cultured for an additional 24 hr. Cells were harvested and assayed for CAT activity after the cell lysates were normalized by using β-galactosidaseas an internal control. Chloramphenicol acetyltransferase (CA) activity was visualized by PhosphorImager (Molecular Dynamics) and quantitated by ImageQuant software (Molecular Dynamics).

B1: ARA54: 54 kDa protein that interacts with AR in an androgen-dependent manner; AR coactivator (protein)
chain: MSSEDREAQEDELLALASIYDGDEFRKAESVQGGETRIYLDLPQNFKIFVSGNSNECLQNSGFEYTICFLPPLVLNFELPPDYPSSSPPSFTLSGKWLSPTQLSALCKHLDNLWEEHRGSVVLFAWMQFLKEETLAYLNIVSPFELKIGSQKKVQRRTAQASPNTELDFGGAAGSDVDQEEIVDERAVQDVESLSNLIQEILDFDQAQQIKCFNSKLFLCSICFCEKLGSECMYFLECRHVYCKACLKDYFEIQIRDGQVQCLNCPEPKCPSVATPGQVKELVEAELFARYDRLLLQSSLDLMADVVYCPRPCCQLPVMQEPGCTMGICSSCNFAFCTLCRLTYHGVSPCKVTAEKLMDLRNEYLQADEANKRLLDQRYGKRVIQKALEEMESKEWLEKNSKSCPCCGTPIEKLDGCNKMTCTGCMQYFCWICMGSLSRANPYKHFNDPGSPCFNRLFYAVDVDDDIWEDEVED
As to B1, the “effect on GR transcription activity” value was “less than 2 fold”.
